Assay results reported in patent US20260070986A1 (AFFIMED, published 2026).

How the values were obtained:
[1] = target: T1, human CD16A (158F) on transfected CHO cells (cAg_34) (human, UniProt P08637 17-254); assay: flow cytometry on huCD16A (158F) CHO cells (cAg_34), one-site fit of MFI, Exp. 1
T1 construct: Exact cell-anchored construct not described; also called huCD16A
Procedure: (§1) After washing twice, cells were incubated with FITC-conjugated goat anti-human IgG (H+L) (Jackson Immunologies, cat.: 109-096-088) for 40-50 min on ice in the dark. […] After washing, binding was measured by flow cytometry and mean fluorescence intensities (MFI) of cell samples were calculated and corrected for background staining using control cells stained with secondary antibodies only.
(§2) Equilibrium dissociation constants (KD) of antibody binding were calculated by plotting MFI values and fitting a non-linear regression model for one-site binding to hyperbolic dose-response curves using GraphPad Prism.

[2] = target: T2, cynomolgus CD16 on transfected CHO cells (cAg_36) (cynomolgus, UniProt Q8SPW2 17-254); assay: flow cytometry on cyCD16 CHO cells (cAg_36), one-site fit of MFI, Exp. 3
T2 construct: whole, on cells; also called cyCD16
Procedure: as §1, §2

[3] = target: T1, human CD16A (158F) on transfected CHO …; assay: flow cytometry on huCD16A (158F) CHO cells (cAg_34), one-site fit of MFI, Exp. 3
Procedure: as §1, §2

[4] = target: T2, cynomolgus CD16 on transfected CHO …; assay: flow cytometry on cyCD16-transfected CHO cells (cAg_36), anti-human IgG-FITC detection
Procedure: (§3) After washing in FACS buffer, cells were incubated in 50 μL FACS buffer without antibodies or with titrated antibodies starting at a concentration of 1000 nM followed by elven 3-fold serial dilutions for 40-50 min on ice in the dark. After washing twice, cells were incubated with FITC-conjugated goat anti-human IgG (H+L) (Jackson Immunologies, cat.: 109-096-088) for 40-50 min on ice in the dark. […] After washing, binding was measured by flow cytometry and mean fluorescence intensities (MFI) of cell samples were calculated and corrected for background staining using control cells stained with secondary antibodies only.

[5] = target: T2, cynomolgus CD16 on transfected CHO …; assay: flow cytometry on cyCD16 CHO cells (cAg_36), one-site fit of MFI, Exp. 2
Procedure: as §3, §2

[6] = target: T1, human CD16A (158F) on transfected CHO …; assay: flow cytometry on huCD16A (158F) CHO cells (cAg_34), one-site fit of MFI, mean
Procedure: as §1, §2

[7] = target: T2, cynomolgus CD16 on transfected CHO …; assay: flow cytometry on cyCD16 CHO cells (cAg_36), one-site fit of MFI, mean
Procedure: as §3, §2

[8] = target: T2, cynomolgus CD16 on transfected CHO …; assay: flow cytometry on cyCD16 CHO cells (cAg_36), one-site fit of MFI, Exp. 1
Procedure: as §1, §2

[9] = target: T1, human CD16A (158F) on transfected CHO …; assay: flow cytometry on huCD16A (158F) CHO cells (cAg_34), one-site fit of MFI, Exp. 2
Procedure: as §1, §2

[10] = target: T1, human CD16A (158F) on transfected CHO …; assay: flow cytometry on huCD16A (158F)-transfected CHO cells (cAg_34), anti-human IgG-FITC detection
Procedure: as §3

T2 sequence (Q8SPW2 17-254): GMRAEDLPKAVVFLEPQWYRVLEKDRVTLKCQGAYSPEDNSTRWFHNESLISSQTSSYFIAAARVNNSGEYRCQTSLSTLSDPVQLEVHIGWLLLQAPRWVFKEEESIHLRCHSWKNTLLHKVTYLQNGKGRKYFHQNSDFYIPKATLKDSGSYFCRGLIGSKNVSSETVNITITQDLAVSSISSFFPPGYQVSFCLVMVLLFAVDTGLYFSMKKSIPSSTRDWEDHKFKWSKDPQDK
T1 sequence (P08637 17-254 limits assumed): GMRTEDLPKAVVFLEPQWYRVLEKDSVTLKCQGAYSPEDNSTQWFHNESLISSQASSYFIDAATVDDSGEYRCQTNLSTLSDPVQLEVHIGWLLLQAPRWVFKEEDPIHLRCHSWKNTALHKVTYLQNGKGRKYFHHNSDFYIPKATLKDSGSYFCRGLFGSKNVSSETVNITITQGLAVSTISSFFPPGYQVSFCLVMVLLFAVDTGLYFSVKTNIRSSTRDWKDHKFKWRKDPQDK

Kd [1]: 22.1 nM | Kd [2]: 28.2 nM | Kd [3]: 27.1 nM | EC50 (read off the curve) [4]: ~40 nM | Kd [5]: 31.7 nM | Kd [6]: 26.2 nM | Kd [7]: 32.8 nM | Kd [8]: 38.6 nM | Kd [9]: 29.3 nM | EC50 (read off the curve) [10]: ~30 nM
B1: scFv-IgAb_381 (Target specificity x CD16A, CD16a4) (bispecific antibody)
chain 1: EVQLVESGGGVVQPGRSLRLSCSASGFTFSGYGLSWVRQAPGKGLEWVAMISSGGSYTYYADSVKGRFAISRDNAKNTLFLQMDSLRPEDTGVYFCARHGDDPAWFAYWGQGTPVTVSSASTKGPSVFPLAPSSKSTSGGTAALGCLVKDYFPEPVTVSWNSGALTSGVHTFPAVLQSSGLYSLSSVVTVPSSSLGTQTYICNVNHKPSNTKVDKKVEPKSCDKTHTCPPCPAPEFEGGPSVFLFPPKPKDTLMISRTPEVTCVVVAVSHEDPEVKFNWYVDGVEVHNAKTKPREEQYNSTYRVVSVLTVLHQDWLNGKEYKCKVSNKALPAPIEKTISKAKGQPREPQVYTLPPSREEMTKNQVSLTCLVKGFYPSDIAVEWESNGQPENNYKTTPPVLDSDGSFFLYSKLTVDKSRWQQGNVFSCSVMHEALHNHYTQKSLSLSPGGGGGSGGGGSGGGGSGGGGSGGGGSGGGGSSYELTQPLSVSVALGQTARITCGGHNIGSKNVHWYQQKPGQAPVLVIYQDNKRPSGIPERFSGSNSGNTATLTISRAQAGDEADYYCQVWDNYNVLFGCGTKLTVLGGSGGSGGSGGSGGSGGSGGSQVQLVQSGAEVKKPGASVKVSCKASGYTFTSYYMHWVRQAPGQCLEWMGAIEPTYGSTSYAQKFQGRVTMTRDTSTSTVYMELSSLRSEDTAVYYCARGSAYYYDFADYWGQGTLVTVS
chain 2: DIQLTQSPSSLSASVGDRVTITCSVSSSISSNNLHWYQQKPGKAPKPWIYGTSNLASGVPSRFSGSGSGTDYTFTISSLQPEDIATYYCQQWSSYPYMYTFGQGTKVEIKRTVAAPSVFIFPPSDEQLKSGTASVVCLLNNFYPREAKVQWKVDNALQSGNSQESVTEQDSKDSTYSLSSTLTLSKADYEKHKVYACEVTHQGLSSPVTKSFNRGEC
